Measurements published in patent EP2225268B1.
Each block holds one molecule with its values, some of them ahead of it.

What was measured:
[1] = target: Wild-type recombinant human NGAL dimer calibrators treated with DTT (human) (UniProt P80188); assay: … sandwich CMIA, capture HYB 211-01, detection acridinium-HYB 211-02; DTT-treated against untreated dimer calibrator; target 250 ng/mL
[2] = target: Native NGAL purchased from Diagnostics Development (Uppsala, Sweden), non-reduced (UniProt P80188); assay: … sandwich CMIA, capture HYB 211-01, detection acridinium-HYB 211-02; non-reduced control sample
[3] = target: Wild-type recombinant human NGAL dimer calibrators treated with DTT (human) (UniProt P80188); assay: … sandwich CMIA, capture HYB 211-01, detection acridinium-HYB 211-02; DTT-treated against untreated dimer calibrator; target 1000 ng/mL
[4] = target: Wild-type recombinant human NGAL dimer calibrators with TCEP in the reaction mixture (human) (UniProt P80188); assay: … sandwich CMIA, capture 1-2322-455, detection acridinium-1-903-430; TCEP in reaction; NGAL 50 ng/mL
[5] = target: Wild-type recombinant human NGAL dimer calibrators with TCEP in the reaction mixture (human) (UniProt P80188); assay: … sandwich CMIA, capture 1-2322-455, detection acridinium-1-903-430; TCEP in reaction; NGAL 250 ng/mL
[6] = target: Wild-type recombinant human NGAL monomer expressed in CHO cells (human) (UniProt P80188); assay: … sandwich CMIA, capture 1-2322-455, detection acridinium-1-903-430; monomer calibrator plus TCEP; curve fit with monomer calibrators; target 600 ng/mL
[7] = target: Wild-type recombinant human NGAL monomer expressed in CHO cells (human) (UniProt P80188); assay: … sandwich CMIA, capture 1-2322-455, detection acridinium-1-903-430; monomer calibrator plus TCEP; curve fit with monomer calibrators; target 5 ng/mL
[8] = target: Wild-type recombinant human NGAL monomer expressed in CHO cells (human) (UniProt P80188); assay: … sandwich CMIA, capture 1-2322-455, detection acridinium-1-903-430; curve fit with monomer calibrators; target 50 ng/mL
[9] = target: Wild-type recombinant human NGAL dimer expressed in CHO cells (human) (UniProt P80188); assay: as above
[10] = target: Wild-type recombinant human NGAL monomer expressed in CHO cells (human) (UniProt P80188); assay: … sandwich CMIA, capture 1-2322-455, detection acridinium-1-903-430; monomer calibrator plus TCEP; curve fit with monomer calibrators; target 50 ng/mL
[11] = target: Wild-type recombinant human NGAL monomer expressed in CHO cells (human) (UniProt P80188); assay: … sandwich CMIA, capture 1-2322-455, detection acridinium-1-903-430; monomer calibrator plus TCEP; curve fit with monomer calibrators; target 1000 ng/mL
[12] = target: Wild-type recombinant human NGAL dimer calibrators with TCEP in the reaction mixture (human) (UniProt P80188); assay: … sandwich CMIA, capture 1-2322-455, detection acridinium-1-903-430; TCEP in reaction; NGAL 600 ng/mL
[13] = target: Wild-type recombinant human NGAL dimer calibrators with TCEP in the reaction mixture (human) (UniProt P80188); assay: … sandwich CMIA, capture 1-2322-455, detection acridinium-1-903-430; TCEP in reaction; NGAL 5 ng/mL
[14] = target: Wild-type recombinant human NGAL monomer expressed in CHO cells (human) (UniProt P80188); assay: … sandwich CMIA, capture 1-2322-455, detection acridinium-1-903-430; monomer calibrator plus TCEP; NGAL 600 ng/mL
[15] = target: Wild-type recombinant human NGAL monomer expressed in CHO cells (human) (UniProt P80188); assay: … sandwich CMIA, capture 1-2322-455, detection acridinium-1-903-430; NGAL 600 ng/mL
[16] = target: Wild-type recombinant human NGAL dimer expressed in CHO cells (human) (UniProt P80188); assay: as above
[17] = target: Wild-type recombinant human NGAL dimer calibrators with TCEP in the reaction mixture (human) (UniProt P80188); assay: … sandwich CMIA, capture 1-2322-455, detection acridinium-1-903-430; TCEP in reaction; curve fit with monomer calibrators; target 50 ng/mL
[18] = target: Wild-type recombinant human NGAL dimer calibrators with TCEP in the reaction mixture (human) (UniProt P80188); assay: … sandwich CMIA, capture 1-2322-455, detection acridinium-1-903-430; TCEP in reaction; NGAL 1000 ng/mL
[19] = target: Wild-type recombinant human NGAL monomer expressed in CHO cells (human) (UniProt P80188); assay: … sandwich CMIA, capture 1-2322-455, detection acridinium-1-903-430; monomer calibrator plus TCEP; NGAL 5 ng/mL
[20] = target: Wild-type recombinant human NGAL monomer expressed in CHO cells (human) (UniProt P80188); assay: … sandwich CMIA, capture 1-2322-455, detection acridinium-1-903-430; monomer calibrator plus TCEP; NGAL 1000 ng/mL
[21] = target: Wild-type recombinant human NGAL monomer expressed in CHO cells (human) (UniProt P80188); assay: … sandwich CMIA, capture 1-2322-455, detection acridinium-1-903-430; curve fit with monomer calibrators; target 1000 ng/mL
[22] = target: Wild-type recombinant human NGAL dimer expressed in CHO cells (human) (UniProt P80188); assay: as above
[23] = target: Wild-type recombinant human NGAL dimer expressed in CHO cells (human) (UniProt P80188); assay: … sandwich CMIA, capture 1-2322-455, detection acridinium-1-903-430; NGAL Dimer High, 1500 ng/mL dimer calibrator
[24] = target: Wild-type recombinant human NGAL monomer expressed in CHO cells (human) (UniProt P80188); assay: … sandwich CMIA, capture 1-2322-455, detection acridinium-1-903-430; monomer calibrator plus TCEP; curve fit with monomer calibrators; target 250 ng/mL

% Increase due to DTT [1]: 229%
NGAL concentration detected [2]: 13.7 ng/mL
% Increase due to DTT [3]: 277%
Molecule: anti-NGAL antibody HYB 211-01 from AntibodyShop A/S, Gentofte, Denmark

RLUs [4]: 132000 RLUs
RLUs [5]: 535000 RLUs
Curve Fit Results [6]: 608 ng/mL
Curve Fit Results [7]: 4.6 ng/mL
Curve Fit Results [8]: 48.2 ng/mL
Curve Fit Results [9]: 13.5 ng/mL
Curve Fit Results [10]: 48.6 ng/mL
Curve Fit Results [11]: 1030 ng/mL
RLUs [12]: 989000 RLUs
RLUs [13]: 15000 RLUs
RLUs [14]: 1.53e+06 RLUs
RLUs [15]: 1.51e+06 RLUs
RLUs [16]: 680000 RLUs
Curve Fit Results [17]: 24.5 ng/mL
RLUs [18]: 1.37e+06 RLUs
RLUs [19]: 29300 RLUs
RLUs [20]: 1.95e+06 RLUs
Curve Fit Results [21]: 1010 ng/mL
Curve Fit Results [22]: 294 ng/mL
NGAL concentration detected [23]: 309 ng/mL
Curve Fit Results [24]: 266 ng/mL
B1: antibody produced by murine hybridoma cell line 1-2322-455 having ATCC Accession No. PTA-8024 (antibody, V domains shown)
VH: EVQLVESGGGLVQPGGSLKLSCAASGFTFNNYYMSWVRQTPERRLEWVAYISSSGGSTYYSDSVRGRFTISRDTARNTLYLQMTSLKSEDTAMYYCARHFGDYSYFDYWGQGTTLTVSS
VL: DIQMTQSPASLSASVGETVTITCRASENFYSYLAWYQQKQGKSPQLLVYNAKTLAEGVPSRFSGSGSGTQFSLKINSLQPEDFGTYYCQHHYDIPLTFGAGTKLELKR
